The target in experiment [1] is T1, human Necl1 expressed on transduced EL4 cells (human, UniProt Q8N126 25-398).
T1 construct: whole, on cells
T1 sequence (looked up): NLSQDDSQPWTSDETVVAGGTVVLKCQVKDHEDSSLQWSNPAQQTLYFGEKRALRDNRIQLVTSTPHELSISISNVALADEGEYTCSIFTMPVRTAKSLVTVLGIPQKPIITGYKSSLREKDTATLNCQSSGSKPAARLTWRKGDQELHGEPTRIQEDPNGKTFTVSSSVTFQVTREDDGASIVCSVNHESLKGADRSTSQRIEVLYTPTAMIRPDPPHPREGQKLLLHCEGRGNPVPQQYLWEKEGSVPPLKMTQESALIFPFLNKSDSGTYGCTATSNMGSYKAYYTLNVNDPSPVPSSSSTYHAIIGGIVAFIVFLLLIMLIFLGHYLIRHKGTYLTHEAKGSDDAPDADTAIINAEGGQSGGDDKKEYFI
In words: flow cytometry on transduced EL4 cells.

For experiment [2], the target named is T2, human LDCAM, full length membrane-bound, expressed on transfected or transduced cells (human, UniProt Q9BY67 39-442).
T2 construct: also called B7L-1 counter receptor; Igsf4
T2 sequence: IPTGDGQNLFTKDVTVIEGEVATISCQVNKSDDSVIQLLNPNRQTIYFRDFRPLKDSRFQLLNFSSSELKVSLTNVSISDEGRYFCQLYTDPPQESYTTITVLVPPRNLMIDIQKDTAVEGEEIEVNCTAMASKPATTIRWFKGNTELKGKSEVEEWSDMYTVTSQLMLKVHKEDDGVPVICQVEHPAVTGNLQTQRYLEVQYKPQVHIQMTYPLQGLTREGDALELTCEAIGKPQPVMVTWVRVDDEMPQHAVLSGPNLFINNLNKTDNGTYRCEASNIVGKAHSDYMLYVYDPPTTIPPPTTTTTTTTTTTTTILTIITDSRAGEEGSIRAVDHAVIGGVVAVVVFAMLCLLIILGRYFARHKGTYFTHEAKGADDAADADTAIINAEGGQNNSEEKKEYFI
The experiment is described as follows: flow cytometry on EL4 cells transduced with human LDCAM (legend of FIG. 15).

B1: soluble recombinant human CRTAM-Fc (Fc fusion)
chain: SLTNHTETITVEEGQTLTLKCVTSLRKNSSLQWLTPSGFTIFLNEYPALKNSKYQLLHHSANQLSITVPNVTLQDEGVYKCLHYSDSVSTKEVKVIVLATPFKPILEASVIRKQNGEEHVVLMCSTMRSKPPPQITWLLGNSMEVSGGTLHEFETDGKKCNTTSTLIILSYGKNSTVDCIIRHRGLQGRKLVAPFRFEDLVTDEETASDALERNSLSTQDPQQPTSTVSVTEDSSTSEIDKEEKEQTTQDPDLTTEANPQYLGLARKKSG
notes: also called huCRTAM-Fc; not shown: Fc part not described
As to B1, the results for the binding result in experiment [1] and in experiment [2] were “no binding” and “binds”, respectively.
